In the DeepSol protein solubility set:

Experiment: soluble on expression in E. coli; label from the status in PepcDB or PDB records

Sequence	soluble on expression in E. coli
MGSDKIHHHHHHMMQKPKVGQDVPEPSAGGMFQRDAMSPSVAHKPVLELKGNLLSLMVLYLFDSDRNLIEQQFTEKISGAKNFFKNAPIVIDLHALQNTSVPVDLSHLSDLFRKHGLVPVGVRGGNVQQQQAALNLSLGILPDAKPASSRGEPQTEVAVQATRDKVFTQPVRSGQQVAALQGDLVVLAAVNPGAEILAGKNIHVYGPLRGRAIAGVHGYSEARIFCRYFDAELVAVAGQYMLNEDFEDSVRGKPVHIFLENDRLKIQPFEI	not soluble
MGHHHHHHSHMDDIFTQCREGNAVAVRLWLDNTENDLNQGDDHGFSPLHWACREGRSAVVEMLIMRGARINVMNRGDDTPLHLAASHGHRDIVQKLLQYKADINAVNEHGNVPLHYACFWGQDQVAEDLVANGALVSICNKYGEMPVDKAKAPLRELLRERAEK	not soluble
VTLNTIALELVPPNLEGGKERAIEDARKVVQYSAASGLDGRIRHVMMPGMIAEDDDRPIPMQPKLDVLDFWSIIKPELAGVHGLCTQVTAFMDEPSLHRRLVDLSDAGMEGIVFVGVPRTMQDGEGSGVAPTDALSLYRQLVANRGVIVIPTRDGEQGRLNFKCSRGATYGMTQLLYSDAIVGFLREFARTTEHRPEILLSFGFVPKVETRIGLINWLIQDPGNAAVADEQAFVQKLAGSEPARRRRLMVDLYKRVLDGVADLGFPLSIHLEATYGVSAAAFETFAEMLAYWSPAEPGKPD	not soluble
MFSIFKRKTKQVNPFEQGWLTDLIDIHCHLLPAVDDGSKSIEETLSLIDLLEEIGVKQHILTPHIMEEYPSNDAIFLRARFEELLAAITPDKASRLRLAAEYMLDVAFLDRLAEPLLTLGDR	not soluble
MMGSKMASASRVVQVVKPHTPLIRFPDRRDNPKPNVSEALRSAGLPSHSSVISQHSKGSKSPDLLMYQGPPDTAEIIKTLPQKYRRKLVSQEEMEFIQRGGPE	soluble
MSEIVVSKFGGTSVADFDAMNRSADIVLSDANVRLVVLSASAGITNLLVALAEGLEPGERFEKLDAIRNIQFAILERLRYPNVIREEIERLLENITVLAEAAALATSPALTDELVSHGELMSTLLFVEILRERDVQAQWFDVRKVMRTNDRFGRAEPDVAALAELAALQLLPRLNEGLVITQGFIGSENKGRTTTLGRGGSDYTAALLAEALHASRVDIWTDVPGIYTTDPRVVSAAKRIDEIAFAEAAEMATFGAKVLHPATLLPAVRSDIPVFVGSSKDPRAGGTLVCNKTENPPLFRALALRRNQTLLTLHSLNMLHSRGFLAEVFGILARHNISVDLITTSEVSVALTLDTTGSTSTGDTLLTQSLLMELSALCRVEVEEGLALVALIGNDLSKACGVGKEVFGVLEPFNIRMICYGASSHNLCFLVPGEDAEQVVQKLHSNLFE	not soluble
MGSDKIHHHHHHMKYTYREAGVDVERGESFAKTIKSAVKLPEWVMKEPTGYASILTITTPPVVVTADGIGTKLILHRKHGTWRYAAEDLVGMNYNDLVCVGARPVAFLDYLGVERISEEHESFIKELVNVLDSVDVKLVGGETAEMPDVYRGDWDAVGFAVGVLEKRIPVDKIKEGDVIVGIPSSGFHSNGWSLIRRIIKEESIKIEELPFELLKGTRIYREVIELFDLVKGIAHVTGGGVVRALKRVLGKLGAHVSLPKRDFVDWILKYVDFNEAVNTFNMGVGMFLIVEKQKVDEVLARVDGTVVGKVSSDWRIEYGGEGG	not soluble
MALKTDIRGMIWRYPDYFIVGREQCREFARAVKCDHPAFFSEEAAADLGYDALVAPLTFVTILAKYVQLDFFRHVDVGMETMQIVQVDQRFVFHKPVLAGDKLWARMDIHSVDERFGADIVVTRNLCTNDDGELVMEAYTTLMGQQGDGSARLKWDKESGQVIRTALEHHHHHH	not soluble
VRSVQEHQRVVAEMMRACRPITVPLTQAQGLVLGGDVVAPLSLPVFDNSAMDGYAVRAEDTSGATPQNPVMLPVAEDIPAGRADMLTLQPVTAHRIMTGAPVPTGATAIVPVEATDGGVDSVAIRQQATPGKHIRRSGEDVAAGTTVLHNGQIVTPAVLGLAAALGLAELPVLPRQRVLVISTGSELASPGTPLQPGQIYESNSIMLAAAVRDAGAAVVATATAGDDVAQFGAILDRYAVDADLIITSGGVSAGAYEVVKDAFGSADYRGGDHGVEFVKVAMQPGMPQGVGRVAGTPIVTLPGNPVSALVSFEVFIRPPLRMAMGLPDPYRPHRSAVLTASLTSPRGKRQFRRAILDHQAGTVISYGPPASHHLRWLASANGLLDIPEDVVEVAAGTQLQVWDLT	not soluble
MGSDKIHHHHHHMSFTTWTPPAVASERQPFALTLWRAVEAQHVVSTMPLVDSLDEQAVLEAVLDAGKPAVPAEARHLHYLLFTPFRYPPSPWGSRFRAGQDPGVFYGAEEIRTACAELGYWRWRFLNDSPALPRIDARAQTLFQVSVRTEGVALDTPPFDRDSAQWTDPDSHEACQAFGRIAREAGIGLIRYTSVRDPGHGPCGAVMTPRAFDHPLPLATTTWMLTVRRDRVIWQRDDLQQRDSFEFAASLWQRTSERSPEG	not soluble
MGSDKIHHHHHHMIKNTIKKLIEHSIYTTFKLLSKLPNKNLIYFESFHGKQYSDNPKALYEYLTEHSDAQLIWGVKKGYEHIFQQYNVPYVTKFSMKWFLAMPRAKAWMINTRTPDWLYKSPRTTYLQTWHGTPLKKIGLDISNVKMLGTNTQNYQDGFKKESQRWDYLVSPNPYSTSIFQHAFHVSRDKILETGYPRNDKLSHKRNDTEYINGIKTRLNIPLDKKVIMYAPTWRDDEAIREGSYQFNVNFDIEALRQALDDDYVILLRMHYLVVTRIDEHDDFVKDVSDYEDISDLYLISDALVTDYSSVMFDFGVLKRPQIFYAYDLDKYGDELRGFYMDYKKELPGPIVENQTALIDALKQIDETANEYIEARTVFYQKFCSLEDGQASQRICQTIFK	not soluble
MVTLEELKAVFKPKLKPIIWREDSLDLLDQSALPFQTTYITVKTPEEVAKAIKLMQVRGAPAIGITAGYGMVLALISTKPNTLNEAIEELVKAKQIMDQARPTAVNLSWATSRMLNFAKKKIEEGEAKSVSELIQLMKEEANRIYEEELEAELKIGMYGLEKISDGDTILTQCNAGGLATGTGLGTALAPVKLAHYLGMKVSVIAPETRPWLQGSRLTVYELMAEGIQVTLITDTAVGLVIYKNMVNSVMVGADRILKDGHVFNKIGTFKEAVISHELGIPFYALAPSSSFDLKSKVDEIKIEERDPNEVRTIRGIPIVPENVKVYNPVFDVTPPKYITALITEKGVIYPPFEKNIPKIIGL	soluble
AHHHHHHGSKEKRKYFMAHRIGVIQRSKIRELFERASKMENVISLGIGEPDFDTPNNIKEAAKRALDEGWTHYTPNAGIPELREAIAEYYKKFYGIDVEVDNVLVTAGAYEATYLAFETMLEQGDEVIIPDPAFVCYVEDAKLAEAKPIRLPLREENDFKPDIDELLERITKRTRMIVINYPNNPTGAVLDKETAKAIADVAEDYNIYILSDEPYEHFLYDDAKHYPMIKFAPDNTILANSFSKTFAMTGWRLGFVIAPTQIIREMIKLHAYIIGNVASFVQVAGIEALRSKESWKAVEEMRKEYNERRKLVLQRLRKMPYIKVREPKGAFYVFPNISETEMSSEEFSEWLLEKAKVVVIPGTAFGENGEGYVRISYATSREKLIEAMDRIEKALEEI	soluble
MTLLGIKLKQTQQLNQRLQQSLRVLQMSGIELEREVENWLSDNPLLERKDTDEFSDAEFSHYTAPARQIGGDEGEDMLSNIAGEQDFKQYLHAQVCEHPLSDQEAACVHILIDFLDEQGYLTDSIEDILDHTPLEWMLDEAMLQHALTALKKFDPAGVAAADLNESLILQIERLGECAAKPAALHIVRNALDSIDGNRSQTLARIKKHLPQTDSGTLEAALDLIASLNPFPAAGFASSTPTPYSDEALANLLAFRGMEVSRRTIAKYRESFEIPAAHKRKTAE	not soluble
GHMEVTLIVFHAGSLSVPFQEVEKEFSEYAERNLGIKVSFQDEASGSVMAVRKVTDLGRKADVIGVADYTLIPQLLIPNYTDFYVLFATNEIVIAFTDKSRYVEEMKSNPDKWYEILAREDVRFGFSDPNQDPCGYRSLMVIKLADLYYGKEIFKELIEENTNIYSNGTQIYAPKEITVNPGKIVIRPKETDLLGLVESGSIDYIFIYKSVAKQHNLSYITLPSEINLGDFSKEKFYGQISITLGSTGKTIKAKPIVYGVTVLKDAPNREVAIEFLRYLLSENGKRIFEKNHQDFL	soluble
MRRRENMDVNKAIRTAVDTGKVILGSKRTIKFVKHGEGKLVVLAGNIPKDLEEDVKYYAKLSNIPVYQHKITSLELGAVCGKPFPVAALLVLDEGLSNIMELVEKKEGGE	soluble
MGSDKIHHHHHHANQKSEHDHVAKVPKSYLPSGSVMAKEASANLKLSEKLSLIDGQWDSTTDDAASYEMDEQDYQAVATCRKSIEKLYDEKLYPVNLSPDYSNWYTWEAAAKKASDNTFNTYTAYYWIIRFEKYDGTQNHTIWMLEDGTIIMAKAHMKDISDMSEYKEVLQADDESQAENDLSAYKGYFDYSGIDFSKLNLISETTAVEQKNNESYEVLQFLQENEYVYAIHEK	not soluble
MGSDKIHHHHHHMAIISEHHIFLSDDANVGLQTRLKDAITRAIWDGRFAPGDRLPATRALARHLGISRITVSLAYDALLSTGYIVSIARSGYFVASDAPTRMEIVTPGKGDARDRLDWAARLGPVPPALGAQATPADWRRFRYPFIFGEPDVARFPVDDWRDCVRRGLGKRHFEQVADDASDRDDPFLVEQIVRRSVSGRGVAATVDEVLVTAGAQNALWLMVQVLFGGQGGEVAMEDPGYPELRNLLRQQRLTIHPVPVDRDGLKVDRIPEGVRAVFVTPSHQAPTGATMSMARRQALLERAEAEDFVVIEDDYDYEMSYASPSLPALKSLDQRGRVIYIGSFSKSIFPGLRLGYLTADARVVEHARAIRTLSERHPPGLTQRTVAYFLSEGHYNSHSRRMRMRMARRNEVLREALAEHGLTPALRRATGGTTLWLLGPEDLDADALAVSLRDKSVLIEAGSAFYAGGDAPRNRVRLGFATIETARIADGVALIAEAIREQAPTPR	not soluble
MSSSSGNQNSKEHKVAVTHDLGKTNVPEHPKRVVVLELGFIDTLLDLGITPVGVADDNKAKQLINKDVLKKIDGYTSVGTRSQPSMEKIASLKPDLIIADTTRHKKVYDQLKKIAPTIALNNLNADYQDTIDASLTIAKAVGKEKEMEKKLTAHEEKLSETKQKISANSQSVLLIGNTNDTIMARDENFFTSRLLTQVGYRYAISTSGNSDSSNGGDSVNMKMTLEQLLKTDPDVIILMTGKTDDLDADGKRPIEKNVLWKKLKAVKNGHVYHVDRAVWSLRRSVDGANAILDELQKEMPAAKKLEHHHHHH	not soluble
MQEYSIDITLTHPDDVLALFGSNERHLKLIEAHLGVIVHARTERVQVIGEDEEAVELARLTIKALLVLVGRGMVVNTSDVVTALSMAESHQIDQFMALYEEEIIKDNYGKAIRVKTLGQKTYVDSVKRHDVVFGVGPAGTGKTFLAVTLAVTALKRGQVKRIILTRPAVEAGESLGFLPGDLKEKVDPYLRPVYDALYHILGKEQTTRLMERDVIEIAPLAYMRGRTLDDAFVILDEAQNTTIMQMKMFLTRLGFNSKMIVNGDTSQIDLPRNVKSGLIDATQKLQGIKQIDFVYFSAKDVVRHPVVADIIKAYETSSEEMKDLLKPKASDVEADYQPGLTKYPVIGQEHLEHHHHHH	not soluble
